Source: patent publication US6531296B1, “Nuclear tyrosine kinase Rak” (The University of North Carolina at Chapel Hill, priority 1995, dated 2003)
Blank lines part the entries; values can stand above or below the molecule they belong to.

Assays:
CSK (p50csk) = assay: In vitro kinase assay: phosphorylation of Rak carboxy-terminal peptides by CSK; format: biochemical; details: relative to wild-type peptide for the mutants
Procedure: Peptide, Preparation for Phosphorylation. Initially, the OAg was tested for phosphorylation by CSK in an in vitro kinase reaction and was phosphorylated. To further assess which tyrosine was phosphorylated, each of the four tyrosines in the substrate peptide were mutated to phenylalanine by the double-stranded, site-directed mutagenesis method (Deng and Nickoloff. Site-directed mutagenesis of virtually any plasmid by eliminating a unique site. Anal. Biochem., 200:81-88 (1992)). The plasmid was denatured by heating to 100° C. for 5 min and then annealed to a mutagenic primer and a second primer converting an Af/AII site on the plasmid to a Bg/II site. The mutagenic primers for the four tyrosines were: Y45Uf, 5′-[…]-3′ (SEQ ID NO:9); Y163F, 5′-[…]-3′ (SEQ ID NO:10); Y490F, 5′-TGAAGAC-TTTTTTGAAACAG-3′ (SEQ ID NO:11); and Y497F, 5′-[…]-3′ (SEQ ID NO:12).
Purified μ50^csk and Enzyme Assays. p50^csk was produced in S/9 cells from a Baculovirus vector containing the full-length csk cDNA (Okada et al., J. Biol. Chem; 264:20886-20893(1989)), purified according to Murphy et al. (Mol. Cell. Biol., 13:5290-5300 (1993), and mixed with the different peptides of Rak. These peptides correspond to the last 62 amino acids of the kinase, containing four tyrosine residues (Y450, Y463, Y490, and […]), and mutant peptides where each of the four tyrosines was […]. The phosphorylation of the native peptide was compared to the that of the mutant peptides. For the in vitro kinase assay, different amounts of p50^csk were mixed with different amount of the peptides in a reaction buffer (10 mM HEPES (pH 7.4) 10 mM MnCl21. Four μg bovine serum albumin were added to the 20-μl mixture, and the reaction was initiated with the addition of AIP to 1 μm and 10 μCl of 1 γ-^32P)ATP (3000 Ci/mmol; Amersham). Tubes were incubated at 30° C. for 15 min, and the reaction was stopped by the addition of SDS-PAGE sample buffer. The samples were boiled and analyzed on 15% SDS-PAGE gels, which were fixed, stained, and exposed to film at […].
The Carboxy Terminus of Rak Is Phosphorylated by CSK. Since CSK phosphorylates the carboxy terminal tyrosines of several other Src-related kinases, the ability of CSK to phosphorylate a recombinant carboxy-terminal peptide of Rak was analyzed. […] Since this peptide contained four tyrosines at positions 450, 463, 490, and 497, each tyrosine was individually mutated to phenylalanine and then the peptides were assayed for phosphorylation by CSK. […] Indeed, this residue corresponds to the CSK phosphorylation site for the other Src family members with regard to its localization in regard to the kinase domain, although the sequence context of this tyrosine differs from that of the other Src-like kinases.

[1] = molecular target: T1, RbABC (Rb amino acids 379-928, A/B pocket and carboxy-terminus) (Homo sapiens, UniProt P06400); assay: Rb in vitro binding assay, GST-RbABC; details: for Rb binding of Rak deletion forms: Rb fusion protein not specified
T1 construct: Rb fusion proteins encoding amino acids 379-928 (RbABC); made in house; host or cells: pGEX-4T plasmid
T1 sequence (P06400 379-928): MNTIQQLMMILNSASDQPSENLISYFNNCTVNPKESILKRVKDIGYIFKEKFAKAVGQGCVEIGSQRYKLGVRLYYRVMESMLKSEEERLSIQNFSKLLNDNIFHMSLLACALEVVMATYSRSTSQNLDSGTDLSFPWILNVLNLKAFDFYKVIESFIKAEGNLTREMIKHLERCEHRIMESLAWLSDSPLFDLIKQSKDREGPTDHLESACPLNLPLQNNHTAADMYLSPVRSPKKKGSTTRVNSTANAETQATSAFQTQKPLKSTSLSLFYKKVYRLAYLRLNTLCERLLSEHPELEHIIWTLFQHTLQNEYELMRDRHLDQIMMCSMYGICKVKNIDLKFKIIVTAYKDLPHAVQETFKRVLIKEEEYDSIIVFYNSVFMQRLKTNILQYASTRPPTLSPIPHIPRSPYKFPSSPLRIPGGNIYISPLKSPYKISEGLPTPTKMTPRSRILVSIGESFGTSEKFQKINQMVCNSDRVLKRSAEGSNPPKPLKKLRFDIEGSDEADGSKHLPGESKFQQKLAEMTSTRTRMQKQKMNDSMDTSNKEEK
Procedure: (§1) Affinity Precipitations. DNA fragments encoding the amino terminal region of Rak were prepared using the polymerase chain reaction with Pyrococcus furiosus DNA polymerase (Stratagene), and cloned into the pGEX-4T plasmid (Pharmacia). Rb fusion proteins encoding amino acids 379-928 (RbABC, containing the A/B pocket region and the COOH-terminal domain) and 780-928 (RbC for COOH terminal domain only), were prepared similarly. The GST fusion proteins were induced and purified according to the manufacturer's instructions, and were analyzed by SDS-PAGE to ensure that an equal amount of protein was used for the affinity precipitation procedure.
The same procedure was followed for Rb in vitro binding assays, except that the Rb-GST fusion proteins were incubated in the in vitro translated forms of Rak in NP-40 buffer containing 0.5% fraction V bovine serum albumin (Boehringer Mannheim). After three washes with the same buffer, bound proteins were analyzed by SDS-PAGE and detected by autoradiography. Rak was in vitro translated using the TnT-coupled transcription/translation system (Promega) with 2 ug of the pAlt-Rak plasmid. The Rak (1-152) construct was prepared by digesting the pAlt-Rak plasmid with EcoRI to obtain the 5′ EcoRI fragment of Rak.
An in vitro binding reaction was then used to further identify the essential components for the Rak-Rb interaction. In vitro translated Rak was incubated with two Rb-GST fusion proteins, where one encoded amino acids 379-928, spanning the A/B pocket and carboxy-terminus (RbABC), while the other fusion protein encoded amino acids 780-928, and represented only the carboxy-terminus (RbC). […] As a control, the Src protein was in vitro translated and subjected to the same binding reaction, and no binding of Src to any portion of Rb was detected (data not shown).

[2] = molecular target: T2, RbC (Rb amino acids 780-928, carboxy-terminus) (Homo sapiens, UniProt P06400); assay: Rb in vitro binding assay, GST-RbC; details: in vitro translated protein
T2 construct: the other fusion protein encoded amino acids 780-928; made in house; host or cells: pGEX-4T plasmid
T2 sequence (P06400 780-928): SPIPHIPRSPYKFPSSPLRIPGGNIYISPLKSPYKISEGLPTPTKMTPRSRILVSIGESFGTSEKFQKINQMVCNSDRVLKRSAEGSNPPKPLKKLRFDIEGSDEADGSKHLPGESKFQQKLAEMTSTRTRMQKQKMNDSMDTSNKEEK
Procedure: as §1
The same procedure was followed for Rb in vitro binding assays, except that the Rb-GST fusion proteins were incubated in the in vitro translated forms of Rak in NP-40 buffer containing 0.5% fraction V bovine serum albumin (Boehringer Mannheim). After three washes with the same buffer, bound proteins were analyzed by SDS-PAGE and detected by autoradiography. […]
An in vitro binding reaction was then used to further identify the essential components for the Rak-Rb interaction. […] As a control, the Src protein was in vitro translated and subjected to the same binding reaction, and no binding of Src to any portion of Rb was detected (data not shown).

phosphorylation by CSK (CSK (p50csk)): readily phosphorylated
phosphorylation by CSK (CSK (p50csk); listed as OAg): phosphorylated
B1: wild-type peptide: hexahistidine fusion protein containing the 62 carboxy-terminal amino acids of Rak (protein, UniProt P42685 444-505, looked up, fragment)
chain: QMLAQNYRLPQPSNCPQQFYNIMLECWNAEPKERPTFETLRWKLEDYFETDSSYSDANNFIR
modifications: hexahistidine tag
notes: hexahistidine fusion protein containing the 62 carboxy-terminal amino acids of Rak

phosphorylation by CSK (CSK (p50csk)): about one-half
B2: mutant at position 490: 62-amino-acid carboxy-terminal Rak peptide with tyrosine 490 mutated to phenylalanine (protein, UniProt P42685 444-505, looked up, variant Y490F)
chain: QMLAQNYRLPQPSNCPQQFYNIMLECWNAEPKERPTFETLRWKLEDFFETDSSYSDANNFIR
modifications: C-terminal 62 residues His tag
notes: 62-amino-acid carboxy-terminal Rak peptide with tyrosine 490 mutated to phenylalanine

phosphorylation by CSK (CSK (p50csk)): about one-half
B3: mutant at position 450: 62-amino-acid carboxy-terminal Rak peptide with tyrosine 450 mutated to phenylalanine (protein, UniProt P42685 444-505, looked up, variant Y450F)
chain: QMLAQNFRLPQPSNCPQQFYNIMLECWNAEPKERPTFETLRWKLEDYFETDSSYSDANNFIR
modifications: C-terminal 62 residues His tag
notes: 62-amino-acid carboxy-terminal Rak peptide with tyrosine 450 mutated to phenylalanine

phosphorylation by CSK (CSK (p50csk)): barely detectable
B4: 497 mutant: 62-amino-acid carboxy-terminal Rak peptide with tyrosine 497 mutated to phenylalanine (protein, UniProt P42685 444-505, looked up, variant Y497F)
chain: QMLAQNYRLPQPSNCPQQFYNIMLECWNAEPKERPTFETLRWKLEDYFETDSSFSDANNFIR
modifications: C-terminal 62 residues His tag
notes: 62-amino-acid carboxy-terminal Rak peptide with tyrosine 497 mutated to phenylalanine

Rb binding of Rak deletion forms [1]: no change in Rb binding
B5: Rak with amino acids 1-46 deleted: Rak lacking the unique N-terminal region (LPCLSTE sequence removed) (protein, UniProt P42685 47-505, looked up, fragment)
chain: FVALFDYQARTAEDLSFRAGDKLQVLDTLHEGWWFARHLEKRRDGSSQQLQGYIPSNYVAEDRSLQAEPWFFGAIGRSDAEKQLLYSENKTGSFLIRESESQKGEFSLSVLDGAVVKHYRIKRLDEGGFFLTRRRIFSTLNEFVSHYTKTSDGLCVKLGKPCLKIQVPAPFDLSYKTVDQWEIDRNSIQLLKRLGSGQFGEVWEGLWNNTTPVAVKTLKPGSMDPNDFLREAQIMKNLRHPKLIQLYAVCTLEDPIYIITELMRHGSLQEYLQNDTGSKIHLTQQVDMAAQVASGMAYLESRNYIHRDLAARNVLVGEHNIYKVADFGLARVFKVDNEDIYESRHEIKLPVKWTAPEAIRSNKFSIKSDVWSFGILLYEIITYGKMPYSGMTGAQVIQMLAQNYRLPQPSNCPQQFYNIMLECWNAEPKERPTFETLRWKLEDYFETDSSYSDANNFIR

binding to RbC protein, fold less than to RbABC [2]: approximately 5 fold
binding to RbABC fusion protein ([1]; in vitro translated protein, SDS-PAGE and autoradiography): bound efficiently
B6: full-length Rak: in vitro translated full-length Rak protein (SEQ ID NO:2) (protein)
chain: MSNICQRLWEYLEPYLPCLSTEADKSTVIENPGALCSPQSQRHGHYFVALFDYHAPTAEELSFRAGDKLQVLDTLHEGWWFARHLEKRRDGSSQQLQGYIPSNYVAEDRSLQAEAWFFGAIRRSDAEKQLLYSENKTGSFLIRESESQKGEFSLSVLDGAVVKHYRIKRLDEGGFFLTRRRIFSTLNEFVSHYTKTSDGLCVKLGKPCLKIQVPAPFDLSYKTVDQWEIDRNSIQLLKRLGSGQFGEVWEGLWNNTTPVAVKTLKPGSMDPNDFLREAQIMKNLRHPKLIQLYAVCTLEDPIYIITELMRHGSLQEYLQNDTGSKIHLTQQVDMAAQVASGMAYLESRNYIHRDLAARNVLVGEHNIYKVADFGLARVFKVDNEDIYESRHEIKLPVKWTAPEAIRSNKFSIKSDVWSFGILLYEIITYGKMPYSGMTGAQVIQMLAQNYRLPQPSNCPQQFYNIMLECWNAEPKERPTFETLRWKLEDYFETDSSYSDANNFIR

Rb binding of Rak deletion forms [1]: minimally detectable
B7: Rak with amino acids 1-110 deleted: Rak lacking the unique N-terminal region and the SH3 domain (protein, UniProt P42685 111-505, looked up, fragment)
chain: LQAEPWFFGAIGRSDAEKQLLYSENKTGSFLIRESESQKGEFSLSVLDGAVVKHYRIKRLDEGGFFLTRRRIFSTLNEFVSHYTKTSDGLCVKLGKPCLKIQVPAPFDLSYKTVDQWEIDRNSIQLLKRLGSGQFGEVWEGLWNNTTPVAVKTLKPGSMDPNDFLREAQIMKNLRHPKLIQLYAVCTLEDPIYIITELMRHGSLQEYLQNDTGSKIHLTQQVDMAAQVASGMAYLESRNYIHRDLAARNVLVGEHNIYKVADFGLARVFKVDNEDIYESRHEIKLPVKWTAPEAIRSNKFSIKSDVWSFGILLYEIITYGKMPYSGMTGAQVIQMLAQNYRLPQPSNCPQQFYNIMLECWNAEPKERPTFETLRWKLEDYFETDSSYSDANNFIR

binding to RbC protein [2]: no longer detectable
less efficiency of binding to RbABC fusion protein ([1]; compared with full-length Rak): approximately 30%
B8: Rak (amino acids 1-152): in vitro translated amino-terminal fragment of Rak with unique amino-terminal region and SH3 domain (protein, UniProt P42685 1-152, looked up, fragment)
chain: MSNICQRLWEYLEPYLPCLSTEADKSTVIENPGALCSPQSQRHGHYFVALFDYQARTAEDLSFRAGDKLQVLDTLHEGWWFARHLEKRRDGSSQQLQGYIPSNYVAEDRSLQAEPWFFGAIGRSDAEKQLLYSENKTGSFLIRESESQKGEF
